The values that follow come from patent US20150175697A1 (MacroGenics, published 2015).

For orientation: Kd means the concentration at which binding is half-saturated. One may read the EC50 (read off the curve) as the midpoint of the concentration-response curve. A higher EC50 (read off the curve) goes with weaker potency. What is called koff is the rate constant with which the complex falls apart. The kon is the second-order rate constant of association.

Assay [1] deals with soluble CD16A (sCD16A) (human) (UniProt P08637). The assay can be described thus: SPR (BIAcore), receptor immobilised. Background: In SPR one partner is held on a chip, and binding of the other changes the refractive index at the surface.
Chain of soluble CD16A (sCD16A) (human) (P08637 17-208): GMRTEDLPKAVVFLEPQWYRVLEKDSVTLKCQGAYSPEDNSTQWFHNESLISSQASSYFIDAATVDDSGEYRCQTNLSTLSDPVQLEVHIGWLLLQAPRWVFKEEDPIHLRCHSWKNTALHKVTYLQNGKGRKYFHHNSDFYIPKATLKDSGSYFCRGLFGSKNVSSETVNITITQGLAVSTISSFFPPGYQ
In assay [2] the target is T1, soluble CD32B (sCD32B) (human, UniProt P31994 43-217).
T1 construct: extracellular domain; also called FcγRIIB; soluble CD32B ectodomain
T1 sequence (looked up): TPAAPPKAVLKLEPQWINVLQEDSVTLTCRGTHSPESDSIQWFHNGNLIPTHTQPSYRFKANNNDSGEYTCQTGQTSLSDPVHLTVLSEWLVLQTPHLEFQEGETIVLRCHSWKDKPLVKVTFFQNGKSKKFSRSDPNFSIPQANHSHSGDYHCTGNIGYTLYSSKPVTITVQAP
The assay can be described thus: sandwich ELISA: sCD32B coated (sCD32B-Ig, 2 ug/ml), diabody titrated, labelled sCD16A as probe; signal needs both bindings.
Method: The binding of eluted and purified diabodies was characterized by ELISA assay, as described in 5.4.2. 50 ul/well of a 2 ug/ml solution of sCD32B-Ig was coated on 96-well Maxisorp plate in Carbonate buffer at 4° C. over night. The plate was washed three times with PBS-T (PBS, 0.1% Tween 20) and blocked by 0.5% BSA in PBS-T for 30 minutes at room temperature. […] The plate was then incubated at room temperature for 1 hour. After washing with PBS-T three times, 50 ul/well of 0.2 ug/ml sCD16A-Biotin was added to each well. The plate was again incubated at room temperature for 1 hour. After washing with PBS-T three times, 50 ul/well of a 1:5000 dilution of HRP conjugated streptavidin (Amersham Pharmacia Biotech) was used for detection. The HRP-streptavidin was allowed to incubate for 45 minutes at room temperature. The plate was washed with PBS-T three times and developed using 80 ul/well of TMB substrate. After a 10 minute incubation, the HRP-TMB reaction was stopped by adding 40 ul/well of 1% H₂SO₄.

The target of assay [3] is T1, soluble CD32B (sCD32B). The assay can be described thus: sandwich ELISA on conditioned medium: soluble FcRIIb-G2-Agly coated (100 ng/well), diabody titrated, FcRIIIa-G2-Biotin probe and streptavidin-HRP; signal needs both bindings. For orientation: ELISA stands for enzyme-linked immunosorbent assay.
Method: After three days in culture, the conditioned medium were harvested and characterized by binding ELISA.
100 ng/well of soluble FcRIIb-G2-Agly was coated on 96-well Maxisorp plate in Carbonate buffer at 40° C. overnight. Plate was washed three times with PBS/0.1% Tween20 and then blocked by 0.5% BSA in PBS/0.1% Tween 20 for 30 mins at room temperature before adding diabodies. […] The plate was incubated at room temperature for 1 hour. After washed with PBS/0.1% Tween20 three times, 10 ng/well of FcRIIIa-G2-Biotin was added to the plate. The plate was incubated at room temperature for 1 hour. After washed with PBS/0.1% Tween20 three times, 50 ul of 1:5000 dilution of HRP conjugated Streptavidin (Amersham Pharmacia Biotech) was used for detection. After 45 minutes incubation at room temperature, the plate was washed with PBS/0.1% Tween20 three times and developed using TMB substrate. After 10 minutes incubation, the reaction was stopped by 1% H2SO4. The OD450 nm was read by SOFTmax program.
The target in assay [4] is T1, soluble CD32B (sCD32B). The assay can be described thus: sandwich ELISA on conditioned medium: soluble FcRIIb-G2-Agly coated, FcRIIIa-G2-Biotin probe and streptavidin-HRP.
The target of assay [5] is T2, human serum albumin (HSA) (human, UniProt P02768 25-609).
T2 construct: also called HRP-human albumin
The assay can be described thus: Albumin Binding Assay; x axis hE16scFv-ABD Concentration (ug/ml); albumin taken as HSA as in Table 23.

Assay [6] concerns the target T2, human serum albumin (HSA). The assay can be described thus: ABD-Binding Elisa; x axis Protein concentration (ug/ml); albumin taken as HSA as in Table 23.
Assay [7] concerns the target T2, human serum albumin (HSA). The assay can be described thus: Albumin Binding Assay; x axis hE16scFv-ABD Concentration (ug/ml); albumin taken as HSA as in Table 23. This is another data set of the same source.
Assay [8] deals with T2, human serum albumin (HSA). The assay can be described thus: HSA binding class (+++ 0.7-1.0; ++ 0.4-0.7; + 0.1-0.4).
The target of assay [9] is T1, soluble CD32B (sCD32B). The assay can be described thus: SPR (BIAcore), receptor immobilised.
Assay [10] addresses T3, soluble CD16A (sCD16A) (human, UniProt P08637 17-208).
T3 construct: extracellular domain; given only as soluble; immobilised in SPR, plate coat or biotin/HRP-labelled probe in ELISA; also called FcγRIIIA; sCD16A-Biotin
The assay can be described thus: SPR (BIAcore): sCD16 immobilised, diabody injected for 60 s.

The target of assay [11] is T4, soluble CD32A (sCD32A) (UniProt P12318 34-217, limits assumed).
T4 construct: extracellular domain; also called sCD32A (negative control)
T4 sequence (looked up): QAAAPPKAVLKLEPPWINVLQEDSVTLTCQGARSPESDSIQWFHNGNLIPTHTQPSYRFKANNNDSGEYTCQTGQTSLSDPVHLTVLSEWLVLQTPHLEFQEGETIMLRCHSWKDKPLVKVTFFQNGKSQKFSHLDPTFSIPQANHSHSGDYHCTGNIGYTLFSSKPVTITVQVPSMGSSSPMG
The assay can be described thus: SPR (BIAcore): sCD32A (negative control) immobilised, diabody injected for 60 s.

The target in assay [12] is T3, soluble CD16A (sCD16A). The assay can be described thus: sandwich ELISA on conditioned medium: soluble FcRIIb-G2-Agly coated, FcRIIIa-G2-Biotin probe and streptavidin-HRP.
For assay [13], the target named is T2, human serum albumin (HSA). The assay can be described thus: SPR sensorgrams with HSA; printed under the panel.
Assay [14] concerns the target T1, soluble CD32B (sCD32B). The assay can be described thus: SPR sensorgrams with sCD32B; printed under the panel.
The target of assay [15] is T5, soluble CD16A(158F) (human, UniProt P08637 17-208).
T5 construct: extracellular domain; also called CD16A(F158); sCD16A
T5 sequence (P08637 17-208): as the sequence (P08637 17-208) above
The assay can be described thus: SPR sensorgrams with sCD16A (158F per paragraph 834); printed under the panel.

The target in assay [16] is T3, soluble CD16A (sCD16A). The assay can be described thus: dual ELISA: CD16A coated, DART titrated, biotinylated sCD32B detection, without HSA.
The target of assay [17] is T3, soluble CD16A (sCD16A). The assay can be described thus: dual ELISA: CD16A coated, DART titrated, biotinylated sCD32B detection, with 3 mg/ml HSA.

T3 sequence (P08637 17-208): as the sequence (P08637 17-208) above

h3G8 scFv: the Kd in assay [1] is 38.7 nM. This lies in the double-digit nanomolar range.

B1: h2B6-h3G8 covalent bispecific diabody (CBD) (bispecific antibody)
chain 1: EIVLTQSPDFQSVTPKEKVTFTCRTSQSIGTNIHWYQQKPDQSPKLLIKEVSESISGVPSRFSGSGSGTDFTLTINSLEAEDAATYYCQQSNTWPFTFGGGTKVEIKGGGSGGGGQVTLRESGPALVKPTQTLTLTCTFSGFSLSTSGMGVGWIRQPPGKALEWLAHIWWDDDKRYNPALKSRLTISKDTSKNQVVLTMTNMDPVDTATYYCAQINPAWFAYWGQGTLVTVSSLGGC
chain 2: DIVMTQSPDSLAVSLGERATINCKASQSVDFDGDSFMNWYQQKPGQPPKLLIYTTSNLESGVPDRFSGSGSGTDFTLTISSLQAEDVAVYYCQQSNEDPYTFGQGTKLEIKGGGSGGGGQVQLVQSGAEVKKPGASVKVSCKASGYTFTNYWIHWVRQAPGQGLEWIGVIDPSDTYPNYNKKFKGRVTMTVVVSTSTAYMELRSLRSDDTAVYYCARNGDSDYYSGMDYWGQGTTVTVSSLGGC
notes: covalent heterodimer of constructs 1 and 2; also called h2B6-h3G8 CBD; h2B6-h3G8 diabody
Take B1: the “EC50 (read off the curve)” value in [2] is approximately 0.05 µg/mL.

B2: Hu2B6 4.5-Hu3G8 5.1 (bispecific antibody)
chain 1: B1 chain 2
chain 2: B1 chain 1
modifications: the two chains are joined by a disulfide between their C-terminal LGGC cysteines
notes: tested as conditioned medium of HEK-293 cells; also called Hu2B6 4.5-Hu3G8 5.1 biospecific diabody
As for B2, in [3], the “EC50 (read off the curve)” value was approximately 0.05 µg/mL.

B3: Hu3G8 5.1 (other)
chain 1: DIVMTQSPDSLAVSLGERATINCKASQSVDFDGDSFMNWYQQKPGQPPKLLIYTTSNLESGVPDRFSGSGSGTDFTLTISSLQAEDVAVYYCQQSNEDPYTFGQGTKLEIKGGGSGGGGQVTLRESGPALVKPTQTLTLTCTFSGFSLSTSGMGVGWIRQPPGKALEWLAHIWWDDDKRYNPALKSRLTISKDTSKNQVVLTMTNMDPVDTATYYCAQINPAWFAYWGQGTLVTVSSLGGC
chain 2: B3 chain 1
modifications: homodimer of two identical chains, joined by a disulfide between the C-terminal LGGC cysteines
notes: monospecific diabody, conditioned medium; also called Hu3G8 5.1 diabody
Take B3: the binding result in [4] is listed as “no binding (tested: 0.5 ug/ml)”.

With LAEAKVLANRELDKYGVSDYYKNLADNAKTVEGVKALIDEILAALP (other, also called 65A/66D) [ABD3 I65A/N66D], the binding result in assay [5] is “binds”.

As to LAEAKVLANRELDKYGVSDYAKNLINNAKSVEGVKALIDEILAALP (other) [Y61A/T70S], in assay [6], the binding result is listed as “binds”.

On to LAEAKVLANRELDKYGVSDYYKNLISNAKTVEGVKALIDEILAALP (other) [ABD3 N66S], for which the binding result in assay [6] is listed as “binds”.

On to LAEAKVLANRELDKYGVSDYAKNLIDNAKTVEGVKALIDEILAALP (other, also called 61A/66D) [ABD3 Y61A/N66D], for which the binding result in assay [7] is “binds”.

On to LAEAKVLANRELDKYGVSDYYKNAIDNAKTVEGVKALIDEILAALP (other, also called 64A/66D) [ABD3 L64A/N66D], for which the binding result in assay [7] is listed as “binds”.

Take LAEAKVLANRELDKYGVSDYYKNAANNAKTAEGVKALIDEILAALP (other, also called 64A/65A/71A) [ABD3 L64A/I65A/V71A (ABD (AAA))]: the HSA binding in assay [8] lay in the range of 0.4 to 0.7.

As for LAEAKVLANRELDKYGVSDYYKNAANNAKTVEGVKALIDEILAALP (other, also called 64A/65A) [ABD3 L64A/I65A], the binding result in assay [7] is “binds”.

Regarding LAEAKVLANRELDKYGVSDYYKNLINNAKSVEGVKALIDEILAALP (other) [ABD3 T70S], the HSA binding in assay [8] is 0.7 to 1.

With LAEAKVLANRELDKYGVSDYAKNLISNAKTVEGVKALIDEILAALP (other, also called 61A/66S) [ABD3 Y61A/N66S], the binding result in [6] was “binds”.

B4: h2B6 covalent monospecific diabody (CMD) (other)
chain: EIVLTQSPDFQSVTPKEKVTFTCRTSQSIGTNIHWYQQKPDQSPKLLIKEVSESISGVPSRFSGSGSGTDFTLTINSLEAEDAATYYCQQSNTWPFTFGGGTKVEIKGGGSGGGGQVQLVQSGAEVKKPGASVKVSCKASGYTFTNYWIHWVRQAPGQGLEWIGVIDPSDTYPNYNKKFKGRVTMTVVVSTSTAYMELRSLRSDDTAVYYCARNGDSDYYSGMDYWGQGTTVTVSSLGGC
modifications: covalent homodimer: two copies of this chain, disulfide-linked through the C-terminal LGGC cysteine
notes: covalent homodimer; also called h2B6 CMD; h2B6 diabody
In turn, B4 came in with an equilibrium dissociation constant (Kd) in [9] of 21 nM. The binding result in [10] and in assay [11] was “no binding (tested: 100 nM)” throughout.

B5: Hu2B6 4.5 (other)
chain 1: B4 chain
chain 2: B4 chain
modifications: homodimer of two identical chains, joined by a disulfide between the C-terminal LGGC cysteines
notes: monospecific diabody, conditioned medium; also called Hu2B6 4.5 diabody
For the molecule B5, the binding result in [12] is recorded as “no binding (tested: 0.5 ug/ml)”.

B6: hCD16-hCD32B ABD-DART (bispecific antibody)
chain 1: DIVMTQSPDSLAVSLGERATINCKASQSVDFDGDSFMNWYQQKPGQPPKLLIYTTSNLESGVPDRFSGSGSGTDFTLTISSLQAEDVAVYYCQQSNEDPYTFGQGTKLEIKGGGSGGGGQVQLVQSGAEVKKPGASVKVSCKASGYTFTNYWIHWVRQAPGQGLEWIGVIDPSDTYPNYNKKFKGRVTMTVVVSTSTAYMELRSLRSDDTAVYYCARNGDSDYYSGMDYWGQGTTVTVSSGGCGGGKVAALKEKVAALKEKVAALKEKVAALKEGGGNS
chain 2: EIVLTQSPDFQSVTPKEKVTFTCRTSQSIGTNIHWYQQKPDQSPKLLIKEVSESISGVPSRFSGSGSGTDFTLTINSLEAEDAATYYCQQSNTWPFTFGGGTKVEIKGGGSGGGGQVTLRESGPALVKPTQTLTLTCTFSGFSLSTSGMGVGWIRQPPGKALEWLAHIWWDDDKRYNPALKSRLTISKDTSKNQVVLTMTNMDPVDTATYYCAQINPAWFAYWGQGTLVTVSSGGCGGGEVAALEKEVAALEKEVAALEKEVAALEKGGGNSLAEAKVLANRELDKYGVSDYYKNLINNAKTVEGVKALIDEILAALP
notes: also called DART ABD fusion; hCD16-hCD32B EK ABD-DART
Take B6: the Kd in [13] was determined as 7.1 nM; in assay [14], 30 nM; in assay [15], 137 nM. Also, the koff came to 0.00064 s⁻¹ in assay [13], 0.0072 s⁻¹ in assay [14] and 0.052 s⁻¹ in [15]. The kon amounted to 90000 M⁻¹ s⁻¹ in assay [13], 240000 M⁻¹ s⁻¹ in [14] and 380000 M⁻¹ s⁻¹ in [15]. Further, the “EC50 (read off the curve)” value was approximately 0.05 µg/mL in assay [16] and approximately 0.06 µg/mL in assay [17].
